# Laboratory results taken from patent US20250236653A1 (ONKO INNATE, published 2025).
# Values joined by “and” are separate entries in the source; they are usually repeats but may differ in a detail not shown here. Identical values can stand only once.
# B1: commercially available recombinant IL-12 (rIL-12, Miltenyi) (ligand)
# chain 1: RNLPVATPDPGMFPCLHHSQNLLRAVSNMLQKARQTLEFYPCTSEEIDHEDITKDKTSTVEACLPLELTKNESCLNSRETSFITNGSCLASRKTSFMMALCLSSIYEDLKMYQVEFKTMNAKLLMDPKRQIFLDQNMLAVIDELMQALNFNSETVPQKSSLEEPDFYKTKIKLCILLHAFRIRAVTIDRVMSYLNAS
# chain 2: IWELKKDVYVVELDWYPDAPGEMVVLTCDTPEEDGITWTLDQSSEVLGSGKTLTIQVKEFGDAGQYTCHKGGEVLSHSLLLLHKKEDGIWSTDILKDQKEPKNKTFLRCEAKNYSGRFTCWWLTTISTDLTFSVKSSRGSSDPQGVTCGAATLSAERVRGDNKEYEYSVECQEDSACPAAEESLPIEVMVDAVHKLKYENYTSSFFIRDIIKPDPPKNLQLKPLKNSRQVEVSWEYPDTWSTPHSYFSLTFCVQVQGKSKREKKDRVFTDKTSATVICRKNASISVRAQDRYYSSSWSEWASVPCS
# B2: commercially available recombinant mouse IL-12 (rmIL-12, BioLegend) (ligand)
# chain 1: RVIPVSGPARCLSQSRNLLKTTDDMVKTAREKLKHYSCTAEDIDHEDITRDQTSTLKTCLPLELHKNESCLATRETSSTTRGSCLPPQKTSLMMTLCLGSIYEDLKMYQTEFQAINAALQNHNHQQIILDKGMLVAIDELMQSLNHNGETLRQKPPVGEADPYRVKMKLCILLHAFSTRVVTINRVMGYLSSA
# chain 2: MWELEKDVYVVEVDWTPDAPGETVNLTCDTPEEDDITWTSDQRHGVIGSGKTLTITVKEFLDAGQYTCHKGGETLSHSHLLLHKKENGIWSTEILKNFKNKTFLKCEAPNYSGRFTCSWLVQRNMDLKFNIKSSSSSPDSRAVTCGMASLSAEKVTLDQRDYEKYSVSCQEDVTCPTAEETLPIELALEARQQNKYENYSTSFFIRDIIKPDPPKNLQMKPLKNSQVEVSWEYPDSWSTPHSYFSLKFFVRIQRKKEKMKETEEGCNQKGAFLVEKTSTEVQCKGGNVCVQAQDRYYNSSCSKWACVPCRVRS
# B3: mono-mut23-20E5_V4 (Fc fusion)
# chain: IWELKKDVYVVELDWYPDAPGEMVVLTCDTPEEDGITWTLDQSSEVLGSGKTLTIQVKEFGDAGQYTCHKGGEVLSHSLLLLHKKEDGIWSTDILKDQKEPKNKTFLRCEAKNYSGRFTCWWLTTISTDLTFSVKSSRGSSDPQGVTCGAATLSAERVRGDNKEYEYSVECQEDSACPAAEESLPIEVMVDAVHKLKYENYTSSFFIRDIIKPDPPKNLQLKPLKNSRQVEVSWEYPDTWSTPHSYFSLTFSVQVQGKSKREKKDRVFTDKTSATVICRKNASISVRAQDRYYSSSWSEWASVPCSGGGGSGGGGSGGGGSGGGGSGGGGSRNLPVATPDPGMFPCLHHSQNLLRAVSNMLQKARQTLEFSPCTSEEIDHEDITKDKTSTVEACLPLELTKNESCLNSRETSFITNGSCLASRKTSFMMALCLSSIYEDLKMYQVEFKTMNAKLLMDPKRQIFLDQNMLAVIDELMQALNFNSETVPQKSSLEEPDFYKTAIKLCILLHAFRIRAVTIDRVMSYLNASGGGGSGGGGSEPKSSDKTHTCPPCPAPEFEGGPSVFLFPPKPKDTLMISRTPEVTCVVVDVSHEDPEVKFNWYVDGVEVHNAKTKPREEQYNSTYRVVSVLTVLHQDWLNGKEYKCKVSNKALPASIEKTISKAKGQPREPQVCTLPPSRDELTKNQVSLSCAVKGFYPSDIAVEWESNGQPENNYKTTPPVLDSDGSFFLVSKLTVDKSRWQQGNVFSCSVMHEALHNHYTQKSLSLSPG
# heavy: QVQLVQSGAEVKKPGASVKVSCKASGYTFTSYVMHWVRQAPGQRLEWIGYINPYNEGTKYNEKFKGRATLTSDKSASTAYMELSSLRSEDTAVYYCANYYGSSLSMDYWGQGTLVTVSSASTKGPSVFPLAPSSKSTSGGTAALGCLVKDYFPEPVTVSWNSGALTSGVHTFPAVLQSSGLYSLSSVVTVPSSSLGTQTYICNVNHKPSNTKVDKKVEPKSCDKTHTCPPCPAPEFEGGPSVFLFPPKPKDTLMISRTPEVTCVVVDVSHEDPEVKFNWYVDGVEVHNAKTKPREEQYNSTYRVVSVLTVLHQDWLNGKEYKCKVSNKALPASIEKTISKAKGQPREPQVYTLPPCRDELTKNQVSLWCLVKGFYPSDIAVEWESNGQPENNYKTTPPVLDSDGSFFLYSKLTVDKSRWQQGNVFSCSVMHEALHNHYTQKSLSLSPG
# light: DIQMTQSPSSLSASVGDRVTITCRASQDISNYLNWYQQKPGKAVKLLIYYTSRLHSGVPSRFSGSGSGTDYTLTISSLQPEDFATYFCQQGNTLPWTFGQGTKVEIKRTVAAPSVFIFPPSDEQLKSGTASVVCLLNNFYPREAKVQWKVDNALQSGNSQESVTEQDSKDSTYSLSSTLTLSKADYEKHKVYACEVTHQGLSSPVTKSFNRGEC
# What was measured:
# human IL-12 receptor = human IL-12 receptor (human, UniProt P42701 24-662; Q99665 24-862); test: cell-based or functional assay
# human IL-12 receptor, sequence (Q99665 24-862 limits assumed, chain 2 of 2, other chains not shown): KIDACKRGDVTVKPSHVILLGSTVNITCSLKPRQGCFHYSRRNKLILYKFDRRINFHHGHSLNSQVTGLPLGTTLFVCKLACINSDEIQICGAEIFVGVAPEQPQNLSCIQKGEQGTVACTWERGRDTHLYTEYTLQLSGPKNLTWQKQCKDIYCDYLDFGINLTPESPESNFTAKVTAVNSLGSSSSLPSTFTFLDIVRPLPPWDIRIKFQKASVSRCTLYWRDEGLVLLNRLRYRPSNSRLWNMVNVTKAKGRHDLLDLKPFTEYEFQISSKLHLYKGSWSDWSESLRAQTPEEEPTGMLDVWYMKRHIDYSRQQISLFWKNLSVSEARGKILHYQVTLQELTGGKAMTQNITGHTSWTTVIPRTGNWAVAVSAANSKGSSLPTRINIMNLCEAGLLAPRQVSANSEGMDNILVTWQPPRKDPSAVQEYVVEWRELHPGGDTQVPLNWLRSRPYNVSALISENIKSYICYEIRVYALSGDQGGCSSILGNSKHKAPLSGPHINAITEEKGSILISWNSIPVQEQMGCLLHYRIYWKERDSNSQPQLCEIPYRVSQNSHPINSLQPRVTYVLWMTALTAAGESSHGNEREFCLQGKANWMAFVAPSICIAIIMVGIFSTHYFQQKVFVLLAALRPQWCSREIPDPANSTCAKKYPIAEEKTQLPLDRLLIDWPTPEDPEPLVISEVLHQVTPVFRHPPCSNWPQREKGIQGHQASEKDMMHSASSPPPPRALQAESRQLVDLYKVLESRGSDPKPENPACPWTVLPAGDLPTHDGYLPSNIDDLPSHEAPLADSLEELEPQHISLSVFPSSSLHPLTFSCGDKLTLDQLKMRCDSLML
# human OX40 = biological target: T1, human OX40 (human, UniProt P43489 29-277); test: cell-based or functional assay
# T1 sequence (looked up): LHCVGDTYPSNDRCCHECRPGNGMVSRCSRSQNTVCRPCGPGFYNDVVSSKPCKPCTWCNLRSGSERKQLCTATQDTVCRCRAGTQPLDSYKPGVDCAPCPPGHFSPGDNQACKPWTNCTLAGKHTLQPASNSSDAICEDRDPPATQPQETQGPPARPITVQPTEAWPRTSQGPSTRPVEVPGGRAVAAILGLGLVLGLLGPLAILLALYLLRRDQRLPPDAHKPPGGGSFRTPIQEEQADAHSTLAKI
binder,measurement,setting,value
B1,"SEAP of CCR8-HEK-Blue IL-12 reporter cells (OD 650 nm), EC50",human IL-12 receptor,0.17 nM
B2,"IFNγ in the supernatant of activated/expanded human T cells (AlphaLISA), EC50",human IL-12 receptor,0.0193 nM
B3,"IFNγ release by conventional CD4+ T cells (AlphaLISA), EC50, two PBMC donors",human OX40,0.0277 nM and 0.0195 nM
same,"IFNγ release by induced Treg cells (AlphaLISA), EC50, two PBMC donors",human OX40,0.0057 nM and 0.0138 nM
